The supplement of paper PMC10724198
± gives the standard deviation of the averaged measurements.

Experiments:
Saccharomyces cerevisiae [1] = experiment: protein stability index of tFT-peptide fusion (C-terminal peptide) (PSI (0-1 scale)); higher = more stable (slower turnover); conditions: genetic background: wild type; temperature: 30 C
Saccharomyces cerevisiae [2] = experiment: as above
Method: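 MPS profiling in S. cerevisiae of the tFT-X12 degron library: putative degron peptides plus stable controls, 12 aa, fused to the C-terminus of a sfGFP-mCherry timer. Cells are FACS-sorted into 8 mCherry/sfGFP bins and deep-sequenced. PSI runs from 0 (unstable) to 1 (stable). Backgrounds are wild type, das1Δ and doa10Δ at 30 °C, and wild type, das1Δ, cdc34-1 and cdc53-1 at 37 °C; 2-3 technical replicates each.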

[3] = genetic background: cdc34-1, temperature: 37 C
[4] = genetic background: cdc53-1, temperature: 37 C
[5] = genetic background: das1 deletion, temperature: 30 C
[6] = genetic background: das1 deletion, temperature: 37 C
[7] = genetic background: doa10 deletion, temperature: 30 C
[8] = genetic background: wild type, temperature: 30 C
[9] = genetic background: wild type, temperature: 37 C
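Further: PSI is a weighted mean of sequencing reads over stability bins, variants kept only with over 10 reads, mCherry proximal and sfGFP distal, peptide attached via GGGS linker.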

| Sequence | protein stability index (Saccharomyces cerevisiae [1]) | protein stability index (Saccharomyces cerevisiae [2]; [3]) | protein stability index (Saccharomyces cerevisiae [2]; [4]) | protein stability index (Saccharomyces cerevisiae [2]; [5]) | protein stability index (Saccharomyces cerevisiae [2]; [6]) | protein stability index (Saccharomyces cerevisiae [2]; [7]) | protein stability index (Saccharomyces cerevisiae [2]; [8]) | protein stability index (Saccharomyces cerevisiae [2]; [9]) |
| --- | --- | --- | --- | --- | --- | --- | --- | --- |
| CWSSVGLSVCGC | 0.601 ± 0.16 | 0.676 ± 0.026 | 0.7508 ± 0.0058 | 0.619 ± 0.031 | 0.7193 ± 0.0065 | 0.597 ± 0.037 | 0.599 ± 0.012 | 0.693 ± 0.024 |
| CWYRAVSIQYVL | 0.306 ± 0.015 | 0.435 ± 0.027 | 0.53 ± 0.025 | 0.367 ± 0.0057 | 0.466 ± 0.021 | 0.26 ± 0.03 | 0.272 ± 0.027 | 0.412 ± 0.0089 |
| DFWMLLFGIIFA | 0.449 ± 0.019 | 0.488 ± 0.041 | 0.521 ± 0.011 | 0.389 ± 0.027 | 0.565 ± 0.033 | 0.387 ± 0.015 | 0.4 ± 0.027 | 0.538 ± 0.017 |
| DHSWGGLLICTC | 0.473 ± 0.039 | 0.476 ± 0.011 | 0.492 ± 0.042 | 0.343 ± 0.049 | 0.546 ± 0.022 | 0.33 ± 0.026 | 0.364 ± 0.028 | 0.513 ± 0.017 |
| DILCGRCMIVGA | 0.495 ± 0.018 | 0.592 ± 0.045 | 0.573 ± 0.023 | 0.415 ± 0.041 | 0.6044 ± 0.0056 | 0.393 ± 0.0059 | 0.422 ± 0.011 | 0.555 ± 0.013 |
| DIRLWISCTLWF | 0.324 ± 0.013 | 0.244 ± 0.019 | 0.361 ± 0.043 | 0.25 ± 0.029 | 0.425 ± 0.014 | 0.26 ± 0.0053 | 0.242 ± 0.025 | 0.37 ± 0.019 |
| DLFVFFVFHFFL | 0.457 ± 0.026 | 0.425 ± 0.032 | 0.532 ± 0.029 | 0.372 ± 0.041 | 0.589 ± 0.013 | 0.377 ± 0.015 | 0.38 ± 0.033 | 0.5686 ± 0.0029 |
| DLRFAWLLSCFS | 0.432 ± 0.015 | 0.44 ± 0.017 | 0.47 ± 0.011 | 0.331 ± 0.034 | 0.501 ± 0.014 | 0.293 ± 0.006 | 0.334 ± 0.022 | 0.476 ± 0.0054 |
| DSSRRKRLICMN | 0.25 ± 0.093 | 0.611 ± 0.016 | 0.702 ± 0.032 | 0.656 ± 0.015 | 0.731 ± 0.008 | 0.18 ± 0.016 | 0.21 ± 0.032 | 0.341 ± 0.017 |
| DVWEHLHKQHNM | 0.499 ± 0.085 | 0.704 ± 0.015 | 0.765 ± 0.032 | 0.699 ± 0.024 | 0.753 ± 0.032 | 0.274 ± 0.021 | 0.348 ± 0.053 | 0.62 ± 0.032 |
| EGVVLLVDCVAT | 0.41 ± 0.025 | 0.4623 ± 0.0015 | 0.465 ± 0.02 | 0.301 ± 0.031 | 0.514 ± 0.0093 | 0.26 ± 0.0074 | 0.308 ± 0.02 | 0.492 ± 0.02 |
| ERRWKRKVIGLC | 0.274 ± 0.047 | 0.632 ± 0.034 | 0.736 ± 0.031 | 0.594 ± 0.015 | 0.734 ± 0.0071 | 0.115 ± 0.025 | 0.131 ± 0.0095 | 0.214 ± 0.024 |
| ERRWVLVAWRFK | 0.494 ± 0.02 | 0.555 ± 0.026 | 0.616 ± 0.013 | 0.442 ± 0.031 | 0.619 ± 0.032 | 0.416 ± 0.0077 | 0.442 ± 0.03 | 0.6 ± 0.017 |
| ESSRNILLWRTI | 0.443 ± 0.073 | 0.69 ± 0.041 | 0.7554 ± 0.00093 | 0.641 ± 0.048 | 0.755 ± 0.032 | 0.247 ± 0.046 | 0.264 ± 0.037 | 0.565 ± 0.018 |
| ETYCLPRVASGI | 0.733 ± 0.0075 | 0.695 ± 0.021 | 0.733 ± 0.026 | 0.655 ± 0.013 | 0.733 ± 0.029 | 0.666 ± 0.02 | 0.665 ± 0.021 | 0.708 ± 0.02 |
| EWAILSLGVMCV | 0.225 ± 0.014 | 0.0657 ± 0.03 | 0.118 ± 0.085 | 0.193 ± 0.013 | 0.2 ± 0.0075 | 0.158 ± 0.0049 | 0.184 ± 0.032 | 0.173 ± 0.011 |
| EYGLLLTLLAYY | 0.362 ± 0.044 | 0.4526 ± 0.0018 | 0.508 ± 0.047 | 0.351 ± 0.026 | 0.549 ± 0.0092 | 0.2986 ± 0.0026 | 0.324 ± 0.021 | 0.5128 ± 0.0022 |
| FCDFLFVFPLFS | 0.515 ± 0.22 | 0.562 ± 0.016 | 0.596 ± 0.013 | 0.507 ± 0.019 | 0.6583 ± 0.0028 | 0.589 ± 0.011 | 0.479 ± 0.024 | 0.6321 ± 0.0062 |
| FCLGFRFFVFFL | 0.218 ± 0.032 | 0.26 ± 0.011 | 0.291 ± 0.018 | 0.271 ± 0.027 | 0.408 ± 0.013 | 0.208 ± 0.012 | 0.163 ± 0.022 | 0.288 ± 0.021 |
| FCRLTFCFFAFL | 0.47 ± 0.035 | 0.573 ± 0.051 | 0.646 ± 0.0074 | 0.499 ± 0.019 | 0.641 ± 0.0092 | 0.446 ± 0.017 | 0.438 ± 0.014 | 0.5586 ± 0.00064 |

| Sequence | protein stability index (Saccharomyces cerevisiae [1]) | protein stability index (Saccharomyces cerevisiae [2]; [3]) | protein stability index (Saccharomyces cerevisiae [2]; [4]) | protein stability index (Saccharomyces cerevisiae [2]; [5]) | protein stability index (Saccharomyces cerevisiae [2]; [6]) | protein stability index (Saccharomyces cerevisiae [2]; [7]) | protein stability index (Saccharomyces cerevisiae [2]; [8]) | protein stability index (Saccharomyces cerevisiae [2]; [9]) |
| --- | --- | --- | --- | --- | --- | --- | --- | --- |
| FCTSSRLLYCSA | 0.302 ± 0.01 | 0.177 ± 0.0029 | 0.222 ± 0.0037 | 0.206 ± 0.026 | 0.3192 ± 0.00046 | 0.175 ± 0.0018 | 0.202 ± 0.026 | 0.278 ± 0.0096 |
| FCTVYFVCVWEM | 0.334 ± 0.055 | 0.1957 ± 0.0014 | 0.273 ± 0.022 | 0.209 ± 0.043 | 0.393 ± 0.033 | 0.177 ± 0.03 | 0.212 ± 0.015 | 0.362 ± 0.014 |
| FECLLFVNLLVI | 0.288 ± 0.02 | 0.274 ± 0.0029 | 0.345 ± 0.014 | 0.24 ± 0.042 | 0.425 ± 0.018 | 0.153 ± 0.014 | 0.188 ± 0.03 | 0.349 ± 0.012 |
| FFCCRLPCLFVL | 0.252 ± 0.022 | 0.369 ± 0.016 | 0.407 ± 0.0051 | 0.363 ± 0.027 | 0.4824 ± 0.0016 | 0.174 ± 0.0061 | 0.174 ± 0.011 | 0.194 ± 0.0073 |
| FFCLFCLSCWVL | 0.436 ± 0.054 | 0.403 ± 0.023 | 0.422 ± 0.02 | 0.331 ± 0.015 | 0.444 ± 0.0054 | 0.323 ± 0.011 | 0.312 ± 0.04 | 0.3863 ± 0.0017 |
| FFCLVEVFVGVF | 0.2798 ± 0.0012 | 0.0707 ± 0.051 | 0.108 ± 0.023 | 0.115 ± 0.044 | 0.177 ± 0.0027 | 0.089 ± 0.018 | 0.0928 ± 0.033 | 0.107 ± 0.014 |
| FFCVLGLSFFCL | 0.542 ± 0.17 | 0.609 ± 0.065 | 0.618 ± 0.016 | 0.568 ± 0.021 | 0.58942 ± 0.00014 | 0.554 ± 0.039 | 0.549 ± 0.021 | 0.566 ± 0.016 |
| FFLFLFFFLRGS | 0.467 ± 0.023 | 0.4853 ± 0.0033 | 0.53967 ± 0.00022 | 0.405 ± 0.025 | 0.533 ± 0.035 | 0.419 ± 0.03 | 0.402 ± 0.035 | 0.511 ± 0.021 |
| FFRVCNALLLVC | 0.0759 ± 0.035 | 0.0637 ± 0.058 | 0.0334 ± 0.0086 | 0.148 ± 0.026 | 0.152 ± 0.025 | 0.0531 ± 0.0033 | 0.0394 ± 0.01 | 0.0662 ± 0.015 |
| FFSFFLSFRLWF | 0.449 ± 0.11 | 0.365 ± 0.061 | 0.298 ± 0.024 | 0.433 ± 0.038 | 0.456 ± 0.012 | 0.596 ± 0.04 | 0.429 ± 0.038 | 0.434 ± 0.058 |
| FFTLSTVKLLRV | 0.508 ± 0.044 | 0.497 ± 0.025 | 0.521 ± 0.02 | 0.427 ± 0.022 | 0.552 ± 0.0087 | 0.385 ± 0.0046 | 0.412 ± 0.027 | 0.5379 ± 0.0018 |
| FFVFVVFFCFGL | 0.383 ± 0.047 | 0.321 ± 0.008 | 0.438 ± 0.035 | 0.303 ± 0.023 | 0.444 ± 0.0091 | 0.2809 ± 0.0014 | 0.303 ± 0.0093 | 0.41 ± 0.014 |
| FGLLLVLASALG | 0.3828 ± 0.0021 | 0.356 ± 0.034 | 0.438 ± 0.026 | 0.318 ± 0.022 | 0.465 ± 0.018 | 0.284 ± 0.024 | 0.307 ± 0.019 | 0.4411 ± 0.0012 |
| FGLMCFIFYVLV | 0.307 ± 0.057 | 0.2 ± 0.018 | 0.331 ± 0.03 | 0.236 ± 0.021 | 0.3756 ± 0.0017 | 0.223 ± 0.016 | 0.225 ± 0.018 | 0.337 ± 0.0078 |
| FHFLFLFSLVSV | 0.416 ± 0.017 | 0.294 ± 0.074 | 0.316 ± 0.03 | 0.269 ± 0.038 | 0.412 ± 0.017 | 0.293 ± 0.0034 | 0.279 ± 0.012 | 0.37513 ± 0.00036 |
| FILLHLLGTIRS | 0.438 ± 0.016 | 0.433 ± 0.02 | 0.487 ± 0.0072 | 0.372 ± 0.031 | 0.502 ± 0.023 | 0.337 ± 0.016 | 0.352 ± 0.026 | 0.4948 ± 0.0018 |
| FIMHRIFMALVI | 0.341 ± 0.14 | 0.386 ± 0.055 | 0.415 ± 0.03 | 0.381 ± 0.042 | 0.4786 ± 0.0006 | 0.29 ± 0.017 | 0.253 ± 0.025 | 0.359 ± 0.0092 |
| FLFCMIFIFRCF | 0.276 ± 0.1 | 0.216 ± 0.011 | 0.196 ± 0.026 | 0.233 ± 0.031 | 0.339 ± 0.025 | 0.203 ± 0.025 | 0.165 ± 0.015 | 0.252 ± 0.022 |
| FLFLFIFYFFCC | 0.389 ± 0.083 | 0.269 ± 0.046 | 0.367 ± 0.0077 | 0.327 ± 0.024 | 0.476 ± 0.02 | 0.315 ± 0.0036 | 0.314 ± 0.032 | 0.401 ± 0.06 |
